Reference: patent US8461305B2, “L-fucose α1→6 specific lectin” (J-Oil Mills, Inc., priority 2008, dated 2013)

Legend:
[1] = frontal affinity chromatography (FAC), association constant to PA sugar chains having α1→6 L-fucose; format: binding; settings: 25 degrees C.
Method: The following section will describe a method of calculating an association constant by frontal affinity chromatography (FAC). This method is based on the following principle. […] Then, the elution front end (front) is observed immediately. When there is an affinity with lectin, the elution of the sugar chain is delayed.
The preparation of a lectin column used in the apparatus is performed in the method as described below. 1. Purified lectin is dissolved in 0.1 to 0.2M of NaHCO3 buffer solution (pH 8.3 to 8.5). 2. The lectin is immobilized, via a lectin primary amino group, a carrier such as NHS activated sepharose. 3. Then, the lectin is blocked by Tris buffer solution including primary amine or ethanolamine for example. 4. Lectin-sepharose is suspended in 10 mM Tris buffer, including 0.8% of NaCl (pH 7.4, TBS). Then, lectin immobilized resin is filled in a miniature column (φ2 mm×10 mm, 31.4 μl). 5. The miniature column in which the lectin immobilized resin is filled is protected by a holder and the lectin column is connected to an FAC automatic analysis apparatus (FAC-1, SHIMADZU CORPORATION).
Then, the elution of the PA sugar chain from the column is detected by a fluorescence detector (excitation wavelength/fluorescence wavelength: 310 nm/380 nm).
Based on the detection data, by using the elution front end (Vo) of the sugar chain (PA rhamnose) not interacting with lectin as a reference, the delay (V−Vo) of the elution front end (V) of a sugar chain interacting with lectin is calculated as an interaction strength. Then, based on the following FAC criteria expressions, the association constant (Ka) between the sugar chain and lectin is calculated based on V−Vo and Bt. If the interaction strength (V−Vo value) and the association constant are higher, a higher affinity is caused between lectin and an L-fucose α1→6 sugar chain.
[In the formula, A means substance used for the elution, Ao means the initial concentration of the substance A, B means a immobilized ligand, V means the elution volume, Vo means the elution front end volume of the substance not interacting with the immobilized ligand B at all, Bt means an effective ligand amount, Kd means a dissociation constant (an inverse of the association constant)].
Pyridylaminated (PA) sugar chains shown in FIG. 1 and FIG. 2 were used to frontal affinity chromatography (FAC) analysis. PA sugars were purchased from TAKARA BIO INC., SEIKAGAKU BIOBUSINESS CORPORATION, and Masuda Chemical Industries co., LTD. PA sugar were also obtained by pyridylaminating, by GlycoTAG®(TAKARA BIO INC.), an unlabeled sugar chain or a sugar chain obtained by subjecting a sugar chain to enzyme digestion for example.
Lectin was dissolved in 0.2 M NaHCO3 buffer solution (pH 8.3) including 0.5 M NaCl and coupled to the NHS-activated sepharose (GE Healthcare Bioscience) by following the manufacturer's instructions. Then, lectin immobilized sepharose was suspended in 10 mM Tris buffer (pH 7.4, TBS) including […] and the resultant matter was filled in a miniature column (φ2 mm×10 mm, 31.4 μl).
Frontal affinity chromatography was performed using FAC automatic analysis apparatus (FAC-1, SHIMADZU CORPORATION). In particular, the above-prepared lectin column was inserted to a stainless steel holder and the holder was connected to FAC-1 apparatus. The flow rate and the column temperature were maintained at 0.125 ml/min and 25 degrees C., respectively. After the miniature column was equilibrated by the TBS, an excessive volume (0.5 ml to 4 ml) of a PA sugar chain (3.75 nM or 7.5 nM) was continuously inputted to the column using an automatic sampling apparatus.
The fluorescent strength of the eluate of the PA sugar (excitation wavelength of 310 nm and fluorescence wavelength of 380 nm) was monitored to measure the interaction strength [a difference of the front end eluate to the standard oligosaccharide (PA rhamnose): V−V0]. […]

glycoproteins = assay: hemagglutinating inhibition test with glycoproteins (sugar binding specificity); format: cell-based
Excerpt: The sugar binding specificity of lectin also can be confirmed by using erythrocytes that can be specifically agglutinated by the lectin to investigate the sugar type that may inhibit the agglutination of the erythrocytes and the concentration thereof.
Various monosaccharides, oligosaccharides, and polysaccharides shown in Table 2 and glycoproteins shown in Table 3 were subjected to hemagglutinating inhibition test to evaluate PTL of Example 1 and the SRL of Example 2 with regard to the sugar binding specificity.
On a 96 well U-bottom microtiter plate, double dilution series of 10 μl of monosaccharide, oligosaccharide, polysaccharide, and glycoprotein solutions were prepared. Then, lectin solution adjusted in advance to have titer 4 was added in an amount of 10 μl to the respective wells. Then, the plate was subjected to a still-standing at a room temperature for one hour for sensitization. Then, 10 μl of 4%-red blood cell suspension was added to the respective wells and the plate was further subjected to a still-standing at a room temperature for one hour. […] The lowest concentration showing the inhibition was assumed as the minimum inhibition concentration. The lower the minimum inhibition concentration is, the higher the specificity to lectin is.
For comparison, the sugar binding specificity was evaluated using the following commercially-available lectins: Comparison Example 1: AAL (SEIKAGAKU BIOBUSINESS CORPORATION—J-OIL MILLS, Inc.), Comparison Example 2: AOL (TOKYO CHEMICAL INDUSTRY CO., LTD.—Gekkeikan Sake Company, Ltd.), Comparison Example 3: LCA (SEIKAGAKU BIOBUSINESS CORPORATION—J-OIL MILLS, Inc.), and Comparison Example 4: PSA (SEIKAGAKU BIOBUSINESS CORPORATION—J-OIL MILLS, Inc.).

- minimum inhibition concentration of hemagglutination (glycoproteins; inhibitor: Asialofetuin): >250 μl/ml
- minimum inhibition concentration of hemagglutination (glycoproteins; inhibitor: Asialomucin (pig)): >250 μl/ml
- minimum inhibition concentration of hemagglutination (glycoproteins; inhibitor: Bovine blood serum albumin): >250 μl/ml
- minimum inhibition concentration of hemagglutination (glycoproteins; inhibitor: Casein): >250 μl/ml
- minimum inhibition concentration of hemagglutination (glycoproteins; inhibitor: Fetuin): >250 μl/ml
- minimum inhibition concentration of hemagglutination (glycoproteins; inhibitor: Human immune globulin A): >250 μl/ml
- minimum inhibition concentration of hemagglutination (glycoproteins; inhibitor: Human immune globulin G): >250 μl/ml
- minimum inhibition concentration of hemagglutination (glycoproteins; inhibitor: Lactoferrin): >250 μl/ml
- minimum inhibition concentration of hemagglutination (glycoproteins; inhibitor: Mucin (bovine)): >250 μl/ml
- minimum inhibition concentration of hemagglutination (glycoproteins; inhibitor: Mucin (pig)): >250 μl/ml
- minimum inhibition concentration of hemagglutination (glycoproteins; inhibitor: Ribonuclease): >250 μl/ml
- minimum inhibition concentration of hemagglutination (glycoproteins; inhibitor: Thyroglobulin): 62.5 μl/ml
- minimum inhibition concentration of hemagglutination (glycoproteins; inhibitor: Transferrin): >250 μl/ml
- minimum inhibition concentration of hemagglutination (glycoproteins; inhibitor: α1-acidic glycoprotein): >250 μl/ml
B1: Pisum sativum agglutinin (protein)
chain: TETTSFLITKFSPDQQNLIFQGDGYTTKEKLTLTKAVKNTVGRALYSSPIHIWDRETGNVANFVTSFTFVINAPNSYNVADGFTFFIAPVDTKPQTGGGYLGVFNSAEYDKTTQTVAVEFDTFYNAAWDPSNRDRHIGIDVNSIKSVNTKSWKLQNGEEANVVIAFNAATNVLTVSLTYPNSLEEENVTSYTLSDVVSLKDVVPEWVRIGFSATTGAEYAAHEVLSWSFHSELSGTSSSKQAADA
- association constant Ka ([1]; Sugar chain No. 015): 120000 M⁻¹
- association constant Ka ([1]; Sugar chain No. 201): 100000 M⁻¹
- association constant Ka ([1]; Sugar chain No. 202): 44000 M⁻¹
- association constant Ka ([1]; Sugar chain No. 203): 25000 M⁻¹
- association constant Ka ([1]; Sugar chain No. 401): 92000 M⁻¹
- association constant Ka ([1]; Sugar chain No. 402): 48000 M⁻¹
- association constant Ka ([1]; Sugar chain No. 403): 38000 M⁻¹
- association constant Ka ([1]; Sugar chain No. 404): 45000 M⁻¹
- association constant Ka ([1]; Sugar chain No. 405): 36000 M⁻¹
- association constant Ka ([1]; Sugar chain No. 406): 13000 M⁻¹
- association constant Ka ([1]; Sugar chain No. 407): <1000 M⁻¹
- association constant Ka ([1]; Sugar chain No. 410): <1000 M⁻¹
- association constant Ka ([1]; Sugar chain No. 413): <1000 M⁻¹
- association constant Ka ([1]; Sugar chain No. 418): <1000 M⁻¹
- association constant Ka ([1]; Sugar chain No. 601): 31000 M⁻¹
- association constant Ka ([1]; Sugar chain No. 602): 29000 M⁻¹
